Data set [1] addresses CD44-HABD (UniProt P16070). Description: filter binding. Particulars: monothioate backbone, Filter binding: 1 nM biotinylated XA, 20 mM Tris pH 8.0, 150 mM NaCl, 40 min, room temperature, cell binding at room temperature, 30-60 min.
Data set [2] deals with CD44-HABD (UniProt P16070 20-178). Description: filter binding; Filter binding: 1 nM biotinylated XA, 20 mM Tris pH 8.0, 150 mM NaCl, 40 min, room temperature; cell binding at room temperature, 30-60 min. Particulars: protein: recombinant; label: biotin.
Chain of CD44-HABD (UniProt P16070 20-178) (P16070 20-178): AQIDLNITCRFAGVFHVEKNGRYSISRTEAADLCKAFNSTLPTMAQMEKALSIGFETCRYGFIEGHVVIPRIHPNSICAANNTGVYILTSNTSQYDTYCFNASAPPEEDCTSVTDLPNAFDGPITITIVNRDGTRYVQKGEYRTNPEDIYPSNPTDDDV

Chain of CD44-HABD (UniProt P16070) (P16070 20-178): as above

As a reminder, the Kd is the constant that tells how readily two partners part at equilibrium. As to “TGCAGATACAGTAAACGTCCATAGACACAG [XA5-ADDA]”, in data set [1] (X = T7, T18 as ADDA-conjugated amino-dU), the Kd amounted to 125 nM.

Regarding “TGCAGATACAGTAAACGTCCATAGACACAG [XA5-NH2]”, the Kd in data set [1] (X = T7, T18 as amino-dU) was determined as 137 nM.

In data set [1] (X = T14 as ADDA-conjugated amino-dU), “TTAAGATCTGCAATGTAACCATAGACACAG [XA9-ADDA]” registered a Kd of 77.6 nM.

The molecule “TTAAGATCTGCAATGTAACCATAGACACAG [XA9-NH2]” displayed a Kd in data set [1] (X = T14 as amino-dU) of 111 nM.

Consider “TTAAGATCTGTTAGGGAACCAAGACGACAG [XA1-ADDA]”, for which the Kd in data set [1] (X = T9, T11 as ADDA-conjugated amino-dU) amounted to 78.3 nM.

Regarding “TTAAGATCTGTTAGGGAACCAAGACGACAG [XA1-NH2]”, the Kd in data set [1] (X = T9, T11 as 5-(aminoethyl-3-acrylimido)-dU) was determined as 55.5 nM.

In data set [1] (X = T18 as ADDA-conjugated amino-dU), “TTGGGGCCTGCAAGACGTCCATAGACACAG [XA4-ADDA]” came in with an equilibrium dissociation constant (Kd) of 103 nM.

Molecule “TTGGGGCCTGCAAGACGTCCATAGACACAG [XA4-NH2]” gave a dissociation constant Kd in data set [1] (X = T18 as amino-dU) of 137 nM.

B1: XA2-NH2 (XNA)
DNA: TGCAGATCTGCAAGGGAACCAAGGACACTAC
modifications: NH2 form; no X in the printed sequence, X position unknown; monothioate backbone
With B1, the dissociation constant (Kd) in data set [2] is 62.9 ± 10.3 nM.

B2: XA2-ADDA (XNA)
DNA: B1 DNA
modifications: ADDA form; no X in the printed sequence, X position unknown; monothioate backbone
Consider B2, for which the Kd in data set [2] came to 109 ± 15.4 nM.

The values above are taken from PMC11852163, “Development and Characterization of CD44-Targeted X-Aptamers with Enhanced Binding Affinity for Cancer Therapeutics”.
